According to US20220242952A1 (MorphoSys, published 2022):
Where “and” joins values, the source holds several entries; their conditions need not be identical. Identical values can stand only once. Values belong to the molecule of their own block, whether it stands above or below them.

Experiments:
CD19 [1] = target: T1, CD19 (human, UniProt P15391 20-556); test: flow cytometry, QuantiBRITE PE quantitation, MEC-1 (CLL) cells
T1 sequence: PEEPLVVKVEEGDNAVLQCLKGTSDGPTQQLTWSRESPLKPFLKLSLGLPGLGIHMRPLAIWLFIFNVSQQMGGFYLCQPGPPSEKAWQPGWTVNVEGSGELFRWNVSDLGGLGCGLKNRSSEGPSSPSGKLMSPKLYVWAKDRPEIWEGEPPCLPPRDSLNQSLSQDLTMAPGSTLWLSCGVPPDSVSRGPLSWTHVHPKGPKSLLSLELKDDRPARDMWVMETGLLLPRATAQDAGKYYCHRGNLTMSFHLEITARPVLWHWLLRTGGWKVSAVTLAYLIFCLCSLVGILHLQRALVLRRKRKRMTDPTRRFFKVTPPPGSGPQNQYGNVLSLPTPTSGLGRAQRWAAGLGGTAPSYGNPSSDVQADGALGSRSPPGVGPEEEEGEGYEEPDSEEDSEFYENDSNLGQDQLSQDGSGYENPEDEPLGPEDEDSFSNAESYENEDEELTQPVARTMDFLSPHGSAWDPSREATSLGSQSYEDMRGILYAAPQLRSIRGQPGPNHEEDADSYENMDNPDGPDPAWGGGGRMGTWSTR

CD19 [2] = target: T1, CD19; test: flow cytometry, QuantiBRITE PE quantitation, JVM-2 (MCL) cells
CD19 [3] = target: T1, CD19; test: flow cytometry, QuantiBRITE PE quantitation, Toledo (DLBCL) cells
CD20 [4] = target: CD20 (UniProt P11836); test: flow cytometry, QuantiBRITE PE quantitation, MEC-1 (CLL) cells
Chain of CD20 (P11836 whole entry): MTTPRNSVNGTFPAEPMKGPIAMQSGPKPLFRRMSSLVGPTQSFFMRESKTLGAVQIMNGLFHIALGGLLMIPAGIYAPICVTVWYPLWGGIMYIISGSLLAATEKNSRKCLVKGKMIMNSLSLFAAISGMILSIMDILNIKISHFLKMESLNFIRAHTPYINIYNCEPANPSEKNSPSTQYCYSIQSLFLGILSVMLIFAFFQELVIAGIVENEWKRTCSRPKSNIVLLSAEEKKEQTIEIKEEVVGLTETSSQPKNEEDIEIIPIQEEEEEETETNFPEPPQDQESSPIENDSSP

CD20 [5] = target: CD20 (UniProt P11836); test: flow cytometry, QuantiBRITE PE quantitation, JVM-2 (MCL) cells
CD20 [6] = target: CD20 (UniProt P11836); test: flow cytometry, QuantiBRITE PE quantitation, Toledo (DLBCL) cells
CD20 [7] = target: CD20 (UniProt P11836); test: cell-based or functional assay
CD19 [8] = target: T1, CD19; test: cell-based or functional assay

antibodies bound per cell (ABC) (antibodies bound per cell) (CD19 [1]): 60900 | antibodies bound per cell (ABC) (antibodies bound per cell) (CD19 [2]): 26200 | antibodies bound per cell (ABC) (antibodies bound per cell) (CD19 [3]): 35700
Molecule: Biolegend CD19-PE (Biolegend #302208; clone HIB19) (antibody)

antibodies bound per cell (ABC) (antibodies bound per cell) (CD20 [4]): 71300 | antibodies bound per cell (ABC) (antibodies bound per cell) (CD20 [5]): 15500 | antibodies bound per cell (ABC) (antibodies bound per cell) (CD20 [6]): 28000
Molecule: Biolegend CD20-PE (Biolegend #302306; clone 2H7) (antibody)

Further lines, the molecule ahead of its results:

Molecule: Rituximab (antibody)
% specific killing, ADCC with NK cells, JVM-2 cells, E:T 0.1:1, 10 ug/ml antibody (CD20 [7]): 0.5% | % specific killing, ADCC with NK cells, JVM-2 cells, E:T 3:1 and 6:1, 10 ug/ml antibody (CD20 [7]): 39% and 48% | % specific killing, ADCC with NK cells, MEC-1 cells, E:T 0.1:1, 10 ug/ml antibody (CD20 [7]): 3% | % specific killing, ADCC with NK cells, Toledo cells, E:T 0.1:1, 10 ug/ml antibody (CD20 [7]): 3% | % specific killing, ADCC with NK cells, Toledo cells, the two higher E:T ratios, 10 ug/ml antibody (CD20 [7]): 60%

B1: MOR00208 (antibody, human IgG1, kappa, V domains shown)
VH: EVQLVESGGGLVKPGGSLKLSCAASGYTFTSYVMHWVRQAPGKGLEWIGYINPYNDGTKYNEKFQGRVTISSDKSISTAYMELSSLRSEDTAMYYCARGTYYYGTRVFDYWGQGTLVTVSS
VL: DIVMTQSPATLSLSPGERATLSCRSSKSLQNVNGNTYLYWFQQKPGQSPQLLIYRMSNLNSGVPDRFSGSGSGTEFTLTISSLEPEDFAVYYCMQHLEYPITFGAGTKLEIKR
% specific killing, ADCC with NK cells, Toledo cells, the two higher E:T ratios, 10 ug/ml antibody (CD19 [8]): ~60% | specific killing ratio compared to Rituximab, individual donor 296, JVM-2 cells, lowest E:T ratio (CD19 [8]): ≤ 20 fold | specific killing ratio compared to Rituximab, individual donor 299, Toledo cells, lowest E:T ratio (CD19 [8]): ≤ 30 fold | specific killing ratio normalized to Rituximab, JVM-2 cells, E:T 0.1:1, median of donors (CD19 [8]): 5.3 fold | specific killing ratio normalized to Rituximab, Toledo cells, E:T 0.1:1, median of donors (CD19 [8]): 2.5 fold | specific killing ratio over Rituximab, MEC-1 cells, E:T 0.1:1, average of 17 donors (CD19 [8]): 1.6 fold
